What is called Kd is a measure of binding affinity in units of concentration.

From article PMC10873205 (Nature Structural & Molecular Biology, 2024) come the findings set out here.

Assay [1] concerns the target T1, UBE2A (UniProt P49459 1-152).
T1 construct: also called UBE2A WT; source: E. coli BL21(DE3), purified (glutathione Sepharose 4B or Ni-NTA, SEC); not shown: GST (from the vector pGEX6P-3), N-terminal, cleaved
Nature of the assay: ITC; UBR4 construct in the cell (74 μM), UBE2A in the syringe at tenfold higher concentration; 25 °C; 0.4 µl then 13 injections of 3 µl; UBE2A into buffer subtracted; single site binding model. As to conditions: both partners purified. In general terms: In ITC the heat of successive injections is recorded.

Assay [2] deals with UBE2A (UniProt P49459 1-152). The description is as above. As to conditions: both partners purified.

B1: UBR4_(xtal) (UBR4 residues 4,730–5,183) (domain or fragment)
chain: AIQHPGTQVLIGTDSIPNLHKLEQVSSDEGIGTLAENLLEALREHPDVNKKIDAARRETRAEKKRMAMAMRQKALGTLGMTTNEKGQVVTKTALLKQMEELIEEPGLTCCICREGYKFQPTKVLGIYTFTKRVALEEMENKPRKQQGYSTVSHFNIVHYDCHLAAVRLARGREEWESAALQNANTKCNGLLPVWGPHVPESAFATCLARHNTYLQECTGQREPTYQLNIHDIKLLFLRFAMEQSFSADTGGGGRESNIHLIPYIIHTVLYVLNTTRATSREEKNLQGFLEQPKEKWVESAFEVDGPYYFTVLALHILPPEQWRATRVEILRRLLVTSQARAVAPGGATRLTDKAVKDYSAYRSSLLFWALVDLIYNMFKKVPTSNTEGGWSCSLAEYIRHNDMPIYEAADKALKTFQEEFMPVETFSEFLDVAGLLSEITDPESFLKDLLNSVP
notes: UBR4, human, residues 4,730–5,183 (runs to the native C-terminus); holds the unresolved N-terminal region, the hemiRING zinc finger and the UZI subdomain; The GST tag is said to be cleaved for crystallization and autoubiquitination assays; Cloning strategy is in Supplementary Data 1; also called UBR4_(4730–5183); hemiRING-UZI module construct; source: E. coli BL21(DE3), purified (glutathione …)
For B1, in the assay with UBE2A [1], the Kd worked out at 1.19 µM.

B2: UBR4_(xtal) Ser4930Arg (domain or fragment)
chain: AIQHPGTQVLIGTDSIPNLHKLEQVSSDEGIGTLAENLLEALREHPDVNKKIDAARRETRAEKKRMAMAMRQKALGTLGMTTNEKGQVVTKTALLKQMEELIEEPGLTCCICREGYKFQPTKVLGIYTFTKRVALEEMENKPRKQQGYSTVSHFNIVHYDCHLAAVRLARGREEWESAALQNANTKCNGLLPVWGPHVPERAFATCLARHNTYLQECTGQREPTYQLNIHDIKLLFLRFAMEQSFSADTGGGGRESNIHLIPYIIHTVLYVLNTTRATSREEKNLQGFLEQPKEKWVESAFEVDGPYYFTVLALHILPPEQWRATRVEILRRLLVTSQARAVAPGGATRLTDKAVKDYSAYRSSLLFWALVDLIYNMFKKVPTSNTEGGWSCSLAEYIRHNDMPIYEAADKALKTFQEEFMPVETFSEFLDVAGLLSEITDPESFLKDLLNSVP
notes: also called UBR4 Ser4930Arg; S4930R; source: E. coli BL21(DE3), purified (glutathione sepharose 4B, SEC)
Take B2: the binding result with UBE2A [1] is “binds”.

B3: UBR4_(4828–5183) (domain or fragment)
chain: EELIEEPGLTCCICREGYKFQPTKVLGIYTFTKRVALEEMENKPRKQQGYSTVSHFNIVHYDCHLAAVRLARGREEWESAALQNANTKCNGLLPVWGPHVPESAFATCLARHNTYLQECTGQREPTYQLNIHDIKLLFLRFAMEQSFSADTGGGGRESNIHLIPYIIHTVLYVLNTTRATSREEKNLQGFLEQPKEKWVESAFEVDGPYYFTVLALHILPPEQWRATRVEILRRLLVTSQARAVAPGGATRLTDKAVKDYSAYRSSLLFWALVDLIYNMFKKVPTSNTEGGWSCSLAEYIRHNDMPIYEAADKALKTFQEEFMPVETFSEFLDVAGLLSEITDPESFLKDLLNSVP
modifications: one Zn2+ bound (Cys4838, Cys4841, His4887, Cys4890). The C-terminal limit 5183 is taken from the Fig. 7 title and legend and the structure section; '4828-5130' in the ITC text is treated as a …
In the assay with UBE2A [2], B3 gave a Kd of 89.8 µM.
